From patent US6485904

Legend:
[1] = biological target: bovine plasminogen (bovine) (UniProt P06868); assay: cell-based or functional assay
bovine plasminogen = bovine plasminogen (UniProt P06868)
[2] = biological target: T1, bovine plasminogen, P06868
T1 chain: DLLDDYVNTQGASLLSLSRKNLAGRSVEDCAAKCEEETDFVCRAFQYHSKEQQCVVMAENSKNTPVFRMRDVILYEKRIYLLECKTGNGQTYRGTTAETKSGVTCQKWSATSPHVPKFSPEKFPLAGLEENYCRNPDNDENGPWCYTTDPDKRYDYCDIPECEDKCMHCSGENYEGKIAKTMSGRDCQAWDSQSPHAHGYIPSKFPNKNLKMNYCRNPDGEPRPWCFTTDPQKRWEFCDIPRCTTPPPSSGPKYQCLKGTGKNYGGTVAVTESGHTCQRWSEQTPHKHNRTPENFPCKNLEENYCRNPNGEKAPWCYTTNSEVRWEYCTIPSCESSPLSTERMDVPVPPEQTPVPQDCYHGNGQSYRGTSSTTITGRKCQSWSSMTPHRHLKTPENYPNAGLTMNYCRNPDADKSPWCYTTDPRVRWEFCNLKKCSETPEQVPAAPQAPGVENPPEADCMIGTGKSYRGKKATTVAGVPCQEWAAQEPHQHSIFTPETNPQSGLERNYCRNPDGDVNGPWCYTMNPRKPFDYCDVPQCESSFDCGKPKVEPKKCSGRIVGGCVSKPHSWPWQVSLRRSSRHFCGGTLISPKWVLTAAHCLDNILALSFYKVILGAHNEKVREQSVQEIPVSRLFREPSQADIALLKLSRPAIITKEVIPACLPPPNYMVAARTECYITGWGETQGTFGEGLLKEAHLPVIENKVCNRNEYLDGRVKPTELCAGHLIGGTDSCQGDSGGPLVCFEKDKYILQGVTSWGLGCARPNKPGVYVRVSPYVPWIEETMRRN

full-length recombinant PauA of S. uberis strain 95-140 expressed from pER326 in E. coli strain Pz326 (enzyme)
Titer, chromogenic assay of whole cell pellet (titer (inverse of dilution factor)) [1]: 23.3

full-length recombinant PauA of S. uberis strain 95-140 expressed from pER330 in E. coli strain Pz330 (enzyme)
Titer, chromogenic assay of whole cell pellet (titer (inverse of dilution factor)) [1]: 1

purified native PauA (strain not stated where used)
enzymatic activity, chromogenic assay titer (bovine plasminogen): titer=3256 | specific activity (bovine plasminogen): the specific activity for native PauA was 5.9 chromogenic units/µg

signal peptide-deleted recombinant PauA of S. uberis strain 95-140 expressed from pER328 in E. coli strain Pz328 (enzyme)
Titer, chromogenic assay of whole cell pellet (titer (inverse of dilution factor)) [1]: 5.3

B1: GST-PauA^28-286 fusion protein (pER356) (protein)
chain: GYDSDYYARYIDPDENKITFAINVDGFVEGSNQEILIRGIHHVLTNQNQKIVTKAELLDAIRHQMVLLQLDYSYELVDFAPDAQLLTRDRRLLFANRNFEESVSLEDTIQEYLLKGHVILRKRVEEPITHPTETANIEYKVQFATKDGEFHPLPIFVDYGEKHIGEKLTSDEFRKIAEEKLLQRYPDYMIDQKEYTIIKHNSLGQLPRYYSYPDDFSYEIQDRQRIMAKDPKSGKELGETQSIDNVFEKYLITKKSYKP
enzymatic activity, chromogenic assay titer [2]: titer=3448 | specific activity [2]: the specific activity of GST-PauA^28-286 was 1.4

B2: PauA from S. uberis strain c216 expressed by E. coli strain Pz318 (plasmid pER318) (protein)
chain: MKKWFLILMLLGIFGCATQPSKVAAITGYDSDYYARYIDPDENKITFAINVDGFVEGSNQEILIRGIHHVLTDQNQKIVTKAELLDAIRHQMVLLQLDYSYELVDFAPDAQLLTQDRRLLFANQNFEESVSLEDTIQEYLLKGHVILRKRVEEPITHPTETANIEYKVQFATKDGEFHPLPIFVDYGEKHIGEKLTSDEFRKIAEEKLLQLYPDYMIDQKEYTIIKHNSLGQLPRYYSYQDHFSYEIQDRQRIMAKDPKSGKELGETQSIDNVFEKYLITKKSYKP
zone of clearing on skim-milk plates with or without bovine plasminogen [2]: their ability to express plasminogen-dependent PauA activity was confirmed by their inability to produce a zone of clearing following growth of individual colonies on plasminogen-free skim-milk plates

B3: PauA from S. uberis strain 95-140 expressed by E. coli strain Pz319 (plasmid pER319) (protein)
chain: MKKWFLILMLLGIFGCATQPSKVAAITGYDSDYYARYIDPDENKITFAINVDGFVEGSNQEILIRGIHHVLTNQNQKIVTKAELLDAIRHQMVLLQLDYSYELVDFAPDAQLLTRDRRLLFANRNFEESVSLEDTIQEYLLKGHVILRKRVEEPITHPTETANIEYKVQFATKDGEFHPLPIFVDYGEKHIGEKLTSDEFRKIAEEKLLQRYPDYMIDQKEYTIIKHNSLGQLPRYYSYPDDFSYEIQDRQRIMAKDPKSGKELGETQSIDNVFEKYLITKKSYKP
zone of clearing on skim-milk plates with or without bovine plasminogen [2]: their ability to express plasminogen-dependent PauA activity was confirmed by their inability to produce a zone of clearing following growth of individual colonies on plasminogen-free skim-milk plates
